The source of these data is US20060246519A1, “MONOMERIC STREPTAVIDIN MUTEINS” (priority 2005, published 2006).

Data set [1] deals with Biotin-conjugated bovine serum albumin. Put plainly: Kinetic analysis by surface plasmon resonance BIAcoreX biosensor. Particulars: interaction with biotin. It counts as binding. Here is the method: FIG. 8: Kinetic parameters for the interaction between M4 streptavidin mutein and biotin as monitored by BIAcore biosensor. A. On-rate (ka) determination. ka is derived from association analysis. kd is the slope of the plot of In(Ro/Rt) versus (t−to) where Ro is the response at an arbitrary starting time to; Rt is the response at time t.
The kinetic parameters (both on- and off-rates for interaction with biotin) of streptavidin muteins were determined in real time using the surface plasmon resonance based BIAcoreX biosensor. Biotin-conjugated bovine serum albumin immobilized on CM5 sensor chip was used to study the reversibility of biotin binding (Qureshi, 2001).

The nature of data set [2]: Apparent molecular mass by gel filtration (Bio-Prep SE 100/17). It is filed as physicochemical. The text has this:
FIG. 6: Gel filtration profiles of streptavidin muteins. FIG. 6A. […] Bovine gamma-globulin (158 kDa), bovine serum albumin (66 kDa), ovalbumin (44 kDa), myoglobin (17 kDa) and vitamin B-12 (1.35 kDa) were used as molecular mass markers (closed circles) to calibrate the column. The logarithm of molecular mass was plotted versus Kav (Kav=(Ve−Vo)/(Vt−Vo); Ve, elution volume; Vo, void volume; Vt, bed volume). Positions of wild-type streptavidin (wt) and streptavidin muteins are represented by solid squares. FIG. 6B. Elution profile of M4 mutein (loaded at 2 mg/ml) on the gel filtration column.
(§1) Molecular mass of purified streptavidin and its muteins was estimated by both gel filtration and dynamic light scattering studies. Gel filtration was performed on the Bio-Rad biologic workstation equipped with a Bio-Prep SE 100/17 column that had been calibrated with molecular mass protein markers (Bio-Rad). Molecular mass was also estimated from the hydrodynamic radius of the mutein obtained using a DynaPro MS dynamic light scattering instrument (Protein Solutions, USA) that had been calibrated with lysozyme. Protein samples (2-3 mg/ml in PBS) were passed through a 0.02 μm filter (Whatman Anodisc 13) immediately prior to measurement. The size distribution profile was analyzed using the manufacturer's Dynamics V6 software.

A short description of data set [3]: Dynamic light scattering (hydrodynamic radius, estimated molecular mass). It counts as physicochemical. The note with it: for M (kDa) (Dynamic light scattering): calculated from measured RH using a protein calibration curve. Here is the method: as §1
The nature of data set [4]: Degree of monomerization of non-boiled samples in SDS-PAGE / Western blot. It is filed as physicochemical. Here is the method:
FIG. 3: Western blot analysis of cell culture supernatants from B. subtilis strains producing streptavidin muteins carrying a single mutation. 15 μl of non-boiled sample of culture supernatant was loaded to each lane. Samples on the left set were collected from B. subtilis strains cultured in super-rich medium without additional supplement of biotin. Samples on the right set were collected from B. subtilis strains cultured in super-rich medium with additional supplementation of biotin (20 μM). The blot was probed with polyclonal antibodies against streptavidin and developed using 4-chloro-1-napthol (Bio-Rad) as the colour development agent. […] M, molecular weight markers; wt, wild type streptavidin.
FIG. 4: Analysis of culture supernatants from B. subtilis strains producing streptavidin muteins carrying different combinations of mutations. All these strains were cultivated in super-rich medium supplemented with biotin (20 μM). The 15 μl of non-boiled samples of culture supernatants were loaded. FIG. 4A. Coomassie blue stained SDS-polyacrylamide gel. Bands corresponding to tetrameric and monomeric streptavidin are marked by an asterisk and an arrowhead, respectively. FIG. 4B. Western blot probed with polyclonal antibodies against streptavidin. M, molecular weight markers; wt, wild type streptavidin; AK, mutein (D61A, W 120K); M1, mutein (T76R); M2, mutein (T76R, V125R); M4, mutein (T76R, V125R, V55T, L109T); C, negative control.
Streptavidin muteins carrying a single amino-acid change at the selected site may be produced in their soluble form by B. subtilis via secretion. Analysis of non-boiled culture supernatants by SDS-PAGE offers a quick screen for the mutation effect (Qureshi, 2001). Weaker subunit interaction would result in a higher percentage of the sample in the monomeric state on the SDS-polyacrylamide gel. Since biotin can strengthen subunit interaction, samples were analyzed in the presence or absence of biotin (Laitinen, 2001; Gonzalez, 1999).
In single mutation muteins, the impact of the mutation on weakening of the subunit interaction followed the order T76R>V125R>[…]≈V55R>V55T (FIG. 3 and Table 4). The T76R mutein (referred to herein as M1) existed 100% in the monomeric state on the SDS-polyacrylamide gel even in the presence of biotin. In contrast, V55T mutation had the lowest impact, with the majority of molecules in the tetrameric state even in the absence of added biotin. Presence of biotin shifts the majority of the three remaining muteins (V125R, V125T and V55R) to the tetrameric state. Changing valine to arginine exerted greater impact than changing it to threonine. This is true for both Val-125 and Val-55.

A short description of data set [5]: Cross-linking reactions with sulfo-EGS. It is filed as physicochemical. The note with it: 10-fold molar excess sulfo-EGS, 30 min, room temperature. Here is the method:
Cross-linking of streptavidin and its muteins was carried out using sulfo-EGS [ethylene glycolbis(sulfosuccinimidyl succinate)] (Pierce) as the cross-linker. A typical reaction mixture (20 μl) contained the purified mutein (0.2 5 mg/ml) and sulfo-EGS (10-fold molar excess over the protein) in PBS. After 30 min at room temperature, the reaction was quenched with Tris-HCl (30 mM, pH 7.5). Aliquots of the cross-linking reaction samples were boiled and examined by SDS-PAGE. Lysozyme (Sigma, 0.25 mg/ml) was included in the study to help establish the optimal reaction conditions.

The subject of a further data set is proteinase K. In words: Proteinase K digestion of streptavidin and its muteins. It counts as biochemical. Here is the method:
Purified streptavidin and its muteins (30 μM monomer) were treated with proteinase K (Invitrogen, 5 μM) for 15 min at 30° C. in 50 mM Tris-HCl containing 5 mM CaCl2, pH 8.0. The reaction was stopped by precipitation with trichloroacetic acid (Ellison, 1995). Boiled samples of precipitated proteins were resolved by reducing SDS-PAGE. The same analysis was performed with streptavidin samples treated with biotin (1 mM final concentration) prior to proteinase K digestion.

Where [6] appears, read: independent of the presence or absence of biotin, 5 μM proteinase K, 15 min, 30° C.

For “AK: prior art streptavidin mutein carrying double mutations D61A, W120K [reference compound]”, the “ka, on-rate” value in data set [1] is on record as 1.46 ± 0.05 × 10^4 M^−1s^−1. Moreover, in data set [1], the “kd, off-rate” value was 3.59 ± 0.03 × 10^−3 s^−1. Moreover, the “M (kDa) (Gel filtration)” value amounted to 50.12 kDa in data set [2] (+biotin) and 45.66 kDa in data set [2] (no biotin). For the same substance, the “RH (nm) (Dynamic light scattering)” value is on record as 3.54 ± 0.38 nm in data set [3] (+biotin) and 3.20 ± 0.23 nm in data set [3] (no biotin). Also, the entries for the “M (kDa) (Dynamic light scattering)” value in data set [3] (+biotin) and in data set [3] (no biotin) were 63 kDa and 50 kDa, respectively. Also, the “Monomer (percentage of streptavidin in monomeric state)” value in data set [4] (No additional biotin) and in data set [4] (With additional biotin (20 μM)) was 100% in each case. Besides, the “Oligomeric state after cross-linking with sulfo-EGS (SDS-PAGE)” value (“Oligomeric state after cross-linking” below) in data set [5] is “cross-linking profile very similar to that of the wild type streptavidin”. Moreover, the “Susceptibility to proteinase K digestion” value is listed as “most of it was digested” in the data set with proteinase K (absence of biotin) and “much more resistant” in the data set with proteinase K (biotin present (1 mM)).
As to “M1: streptavidin mutein carrying the single mutation T76R”, the “Monomer (percentage of streptavidin in monomeric state)” value in data set [4] (No additional biotin) and in data set [4] (With additional biotin (20 μM)) was 100% in each case.
In the case of “M2: streptavidin double mutant carrying T76R and V125R mutations”, the “ka, on-rate” value in data set [1] was 1.88 ± 0.07 × 10^4 M^−1s^−1. In data set [1], the “kd, off-rate” value is 3.22 ± 0.01 × 10^−3 s^−1. In addition, the “M (kDa) (Gel filtration)” value in data set [2] (+biotin) stood at 23.44 kDa; in data set [2] (no biotin), 19.95 kDa. The “RH (nm) (Dynamic light scattering)” value in data set [3] (+biotin) is on record as 2.09 ± 0.29 nm; in data set [3] (no biotin), 1.98 ± 0.24 nm. Further, the figures for the “M (kDa) (Dynamic light scattering)” value in data set [3] (+biotin) and in data set [3] (no biotin) were 18 kDa and 17 kDa, respectively. Besides, the “Monomer (percentage of streptavidin in monomeric state)” value in data set [4] (No additional biotin) and in data set [4] (With additional biotin (20 μM)) was 100% each time. The “Oligomeric state after cross-linking” value in data set [5] is reported as “migrated as monomers”. Besides, the “Susceptibility to proteinase K digestion” value in the data set on proteinase K (setting [6]) is recorded as “completely digested”.
In the case of “V55R: streptavidin mutein carrying the single mutation V55R”, the “Monomer (percentage of streptavidin in monomeric state)” value stood at 20% in data set [4] (No additional biotin) and 10% in data set [4] (With additional biotin (20 μM)).
For the substance “V55T: streptavidin mutein carrying the single mutation V55T”, the results for the “Monomer (percentage of streptavidin in monomeric state)” value in data set [4] (No additional biotin) and in data set [4] (With additional biotin (20 μM)) were 1% and 0%, respectively.
Turning to “V125R: streptavidin mutein carrying the single mutation V125R”, the “Monomer (percentage of streptavidin in monomeric state)” value in data set [4] (No additional biotin) was 92%; in data set [4] (With additional biotin (20 μM)) it was 12%.
With “V125T: streptavidin mutein carrying the single mutation V125T”, the “Monomer (percentage of streptavidin in monomeric state)” value in data set [4] (No additional biotin) amounted to 25%; in data set [4] (With additional biotin (20 μM)) it was 0%.
Consider “Wt: wild-type streptavidin produced by B. subtilis WB800 [reference compound]”, for which the “M (kDa) (Gel filtration)” value in data set [2] (no biotin) is listed as 56.23 kDa. Moreover, the “M (kDa) (Gel filtration)” value in data set [2] (no biotin, listed as wild-type streptavidin) came to 56 kDa. Besides, in data set [3] (no biotin), the “RH (nm) (Dynamic light scattering)” value is recorded as 3.69 ± 0.19 nm and the “M (kDa) (Dynamic light scattering)” value was 69 kDa. The “Oligomeric state after cross-linking” value in data set [5] is “most of these subunits were cross-linked to dimers and higher oligomers”. In the data set with proteinase K (setting [6]), the “Susceptibility to proteinase K digestion” value is “converted to the core form”.
